Test results: paper PMC11323494, “A network of acetyl phosphate-dependent modification modulates c-di-AMP homeostasis in Actinobacteria” (mBio, 2024)
Blank lines part the entries; values can stand above or below the compound they belong to.

Assays:
DasR^K78R = experiment: cross-linking, gel band densitometry (ImageJ); conditions: parent: 100
DasR K78Q variant = experiment: cross-linking, gel band densitometry (ImageJ); conditions: parent: 100
[1] = target: DasR, nonacetylated (GntR-family global regulator) (Saccharopolyspora erythraea); experiment: cross-linking; purified protein in 20 mM bicine pH 8.0, 150 mM NaCl, 10 mM MgCl2, 0.2% n-octyl-beta-D-glucopyranoside, 8% glycerol; 1 mM disuccinimidyl suberate, room temperature, 1 h; 15% SDS-PAGE, Coomassie blue; bands quantified by densitometry; self-association (DisA monomer and octamer, DasR monomer and dimer)
[2] = system: DasR WT (Saccharopolyspora erythraea NRRL2338); experiment: BLI; conditions: BLI: 10 mM HEPES pH 8.0, 2 mM MgCl2, 0.1 mM EDTA, 200 mM KCl (running buffer + 10 µg/mL BSA, 0.02% Tween-20), SA sensor, temperature not stated; EMSA: 5 nM …
[3] = target: DNA integrity scanning protein (DisA), nonacetylated (Saccharopolyspora erythraea) (UniProt A4F6V9); experiment: cross-linking; purified protein in 20 mM bicine pH 8.0, 150 mM NaCl, 10 mM MgCl2, 0.2% n-octyl-beta-D-glucopyranoside, 8% glycerol; 1 mM disuccinimidyl suberate, room temperature, 1 h; 15% SDS-PAGE, Coomassie blue; bands quantified by densitometry; self-association (DisA monomer and octamer, DasR monomer and dimer)
DasR = target: T1, DasR (Saccharopolyspora erythraea, UniProt A4F723); experiment: in vitro acetylation, anti-AcK Western blot; type: binding; conditions: covalent; lysine acetylation; 10 mM AcP, 0-5 h, 37 C, 50 mM HEPES pH 7.5
T1 construct: gene SACE_0500; recombinant His-tagged, pET28a(+), E. coli BL21(DE3); dimer
T1 sequence (A4F723 1-251): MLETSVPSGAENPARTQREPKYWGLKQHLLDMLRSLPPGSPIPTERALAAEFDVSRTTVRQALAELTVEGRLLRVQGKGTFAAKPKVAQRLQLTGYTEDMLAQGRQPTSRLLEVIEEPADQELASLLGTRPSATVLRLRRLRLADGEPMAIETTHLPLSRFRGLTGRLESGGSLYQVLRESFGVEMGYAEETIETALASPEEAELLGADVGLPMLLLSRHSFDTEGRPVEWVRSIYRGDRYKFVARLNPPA

DisA [4] = target: T2, DisA (Saccharopolyspora erythraea, UniProt A4F6V9); experiment: DAC activity by HPLC after […] h preincubation; acetylation by anti-AcK blot and LC-MS/MS; type: biochemical; conditions: covalent; lysine acetylation (K66, K284); 10 mM AcP, 5 h, 37 C, 50 mM HEPES pH 7.5; substrate ATP
T2 construct: recombinant His-tagged, pET28a(+), E. coli BL21(DE3); octamer
T2 sequence (A4F6V9 1-370): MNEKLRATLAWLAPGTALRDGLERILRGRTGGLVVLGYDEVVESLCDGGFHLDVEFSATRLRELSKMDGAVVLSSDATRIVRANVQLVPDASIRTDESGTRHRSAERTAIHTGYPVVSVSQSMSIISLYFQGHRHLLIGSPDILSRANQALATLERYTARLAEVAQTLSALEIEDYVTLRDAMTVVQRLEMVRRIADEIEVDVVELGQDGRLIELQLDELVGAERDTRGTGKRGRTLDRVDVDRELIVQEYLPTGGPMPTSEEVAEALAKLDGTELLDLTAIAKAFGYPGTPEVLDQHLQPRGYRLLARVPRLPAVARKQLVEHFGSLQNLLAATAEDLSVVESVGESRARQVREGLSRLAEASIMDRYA

DisA [5] = target: T2, DisA; experiment: HPLC of c-di-AMP formed (DAC assay); type: biochemical; conditions: 100 mM ATP, 10 mM MgCl2, 0.1 M NaCl, 40 mM Tris pH 7.5, 10 uM enzyme

Compound: DasR, nonacetylated (GntR-family global regulator) K78R
other: relative monomer level (relative monomer level (WT = 100)) (DasR^K78R): 140 | percent of parent (relative dimer level (WT = 100)) (DasR^K78R): 89

Compound: DasR, nonacetylated (GntR-family global regulator) K78Q
other: relative monomer level (relative monomer level (WT = 100)) (DasR K78Q variant): 230 | percent of parent (relative dimer level (WT = 100)) (DasR K78Q variant): 42

Compound: disA promoter probe
Kd [2]: 400 nM

Second part, led by results:

stoichiometry N [1]: 2
Compound: DasR, nonacetylated (GntR-family global regulator) (natural protein)

stoichiometry N [3]: 8
Compound: DNA integrity scanning protein (DisA), nonacetylated (from UniProt A4F6V9 1-370) (enzyme)

DAC activity reduction (%) (DisA [4]): ~ 75%
Compound: CC(=O)OP(=O)(O)O [acetyl phosphate]
in vitro acetylation, anti-AcK Western blot (DasR): In vitro acetylation further confirmed that DasR was acetylated by AcP

HPLC of c-di-AMP formed (DAC assay) (DisA [5]): started by the addition of 100-mM ATP
Compound: Nc1ncnc2c1ncn2[C@@H]1O[C@H](COP(=O)(O)OP(=O)(O)OP(=O)(O)O)[C@@H](O)[C@H]1O [ATP]
